Reference: publication PMC6153280, “Roles of distal aspartate and arginine of B-class dye-decolorizing peroxidase in heterolytic hydrogen peroxide cleavage” (The Journal of Biological Chemistry, 2018)

Legend:
Asp143 = Asp143 (UniProt position 143, LSGFVDGTENP); assay: kinetics; conditions: 25 °C; 2 µM enzyme in 5 mM phosphate citrate buffer, pH 7.0, mixed with H2O2 in 100 mM phosphate citrate buffer, pH 3.0-8.0, or 100 mM glycine NaOH buffer, pH 8.0-10.0; ferric high-spin resting enzyme, folded, reacting with H2O2
[1] = target: KpDyP double variant D143A/R232A (Klebsiella pneumoniae); assay: SEC-MALS; HPLC-SEC combined with multiangle light scattering; data not shown; conditions not given
[2] = target: KpDyP variant D143A (Klebsiella pneumoniae); assay: as above
[3] = target: KpDyP variant R232A (Klebsiella pneumoniae); assay: as above
[4] = target: the molecule itself; assay: as above

Q: How did the pKa (Asp143) turn out when “B-class dye-decolorizing peroxidase (KpDyP) (Klebsiella pneumoniae)” was run?
A: Its pKa is “far below 4.0”.

Q: For “KpDyP double variant D143A/R232A (enzyme)”, which stoichiometry N [1] is on record?
A: The stoichiometry N was 2.

Q: For KpDyP variant D143A (enzyme), which stoichiometry N [2] is on record?
A: The stoichiometry N was 2.

Q: For KpDyP variant R232A (enzyme), which stoichiometry N [3] is on record?
A: Its stoichiometry N is 2.

B1: WT B-class dye-decolorizing peroxidase from Klebsiella pneumoniae (KpDyP) (enzyme, UniProt A0A0W8ATM9 1-299, looked up)
chain: MSQVQSGILPEHCRAAIWIEANLKGDVNALREASKIFVDNVATFQAKFPDAKLGAVVAFGNNVWRQLSGGEGADELKDFPVYGKGLAPSTQYDLLIHILSARHEVNFSVAQAALAAFGDAIDVKEEIHGFRWVEERDLSGFVDGTENPAGEETRREVAVIKDGVDAGGSYVFVQRWEHNLKQLNRMSVPDQEMMIGRTKDANEEIDGDERPVTSHLSRVDLKEDGKGLKIVRQSLPYGTASGTHGLYFCAYCARLYNIEQQLLSMFGDTDGKRDAMLRFTKPVTGGYYFAPSLERIQAL
notes: B-class dye-decolorizing peroxidase (KpDyP), Klebsiella pneumoniae; codon-optimized DNA cloned into pGEX-6P1 with primers that run from the ATG start to the stop codon; about 35 kDa per subunit; One heme b per subunit; also called WT KpDyP; source: E. coli BL21 (DE3) pLysS, purified (GSTrap, on-column HRV 3C cleavage, SEC)
Q: How did the “stoichiometry N” value [4] turn out when B1 was run?
A: Its value is 2.
